Here are results for 16 molecules from patent publication US20260234247A1 (published 2026).

The target in test [1] is T1, human LILRB1 on CHOK1 cells (human, UniProt Q8NHL6 24-650).
T1 construct: whole, on cells; also called CHOK1-hLILRB1; CHOK1-LILRB1
Kind of test: cell-based RBA (FACS): blocking of HLA-G binding to CHOK1-hLILRB1 cells.

The target of test [2] is T2, human LILRB2 on CHOK1 cells (human, UniProt Q8N423 22-597).
T2 construct: whole, on cells; also called CHOK1-hLILRB2; CHOK1-LILRB2
T2 sequence (Q8N423 22-597): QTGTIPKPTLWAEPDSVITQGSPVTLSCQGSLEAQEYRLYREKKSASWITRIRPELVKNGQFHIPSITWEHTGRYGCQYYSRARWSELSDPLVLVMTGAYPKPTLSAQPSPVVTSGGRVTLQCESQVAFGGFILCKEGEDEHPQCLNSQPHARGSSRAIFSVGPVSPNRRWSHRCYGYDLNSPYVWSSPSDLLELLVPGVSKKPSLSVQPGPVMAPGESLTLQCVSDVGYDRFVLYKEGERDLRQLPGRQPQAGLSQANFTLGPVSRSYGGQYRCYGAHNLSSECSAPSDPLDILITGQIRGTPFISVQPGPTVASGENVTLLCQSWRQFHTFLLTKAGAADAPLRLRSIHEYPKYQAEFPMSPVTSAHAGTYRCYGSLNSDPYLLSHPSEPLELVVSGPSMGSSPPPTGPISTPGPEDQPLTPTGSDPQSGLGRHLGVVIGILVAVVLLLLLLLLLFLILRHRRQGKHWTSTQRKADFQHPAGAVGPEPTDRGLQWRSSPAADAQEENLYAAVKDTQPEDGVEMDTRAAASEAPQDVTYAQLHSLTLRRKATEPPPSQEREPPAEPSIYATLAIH
Description: FACS binding, CHOK1-hLILRB2 cells. In general terms: Flow cytometry measures light scatter and fluorescence of single cells or particles in a stream.

In test [3] the target is T1, human LILRB1 on CHOK1 cells. Description: FACS binding, CHOK1-hLILRB1 cells.

T1 sequence (Q8NHL6 24-650): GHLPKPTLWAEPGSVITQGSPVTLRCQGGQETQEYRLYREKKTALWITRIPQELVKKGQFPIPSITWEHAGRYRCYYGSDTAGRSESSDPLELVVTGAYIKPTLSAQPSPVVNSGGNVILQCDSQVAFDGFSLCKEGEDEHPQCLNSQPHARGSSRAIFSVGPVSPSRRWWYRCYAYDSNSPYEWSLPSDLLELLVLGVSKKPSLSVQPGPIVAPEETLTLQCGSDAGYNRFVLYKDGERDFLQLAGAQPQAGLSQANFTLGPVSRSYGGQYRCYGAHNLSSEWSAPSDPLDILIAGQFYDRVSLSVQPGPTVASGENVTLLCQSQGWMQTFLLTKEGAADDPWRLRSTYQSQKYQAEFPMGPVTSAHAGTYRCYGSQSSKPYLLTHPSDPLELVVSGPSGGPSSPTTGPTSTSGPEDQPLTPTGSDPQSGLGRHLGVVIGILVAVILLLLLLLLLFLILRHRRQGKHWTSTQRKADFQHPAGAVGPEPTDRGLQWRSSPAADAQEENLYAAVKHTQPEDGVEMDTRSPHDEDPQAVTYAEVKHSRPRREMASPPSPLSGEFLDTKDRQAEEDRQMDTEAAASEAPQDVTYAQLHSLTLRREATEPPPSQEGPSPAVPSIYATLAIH

B1: LK-RB1-16 (antibody, human IgG4 S228P, kappa, V domains shown)
VH: QVQLKESGPGLVAPSQSLSITCTVSGFSLISNAISWVRQPPGKGLEWLGVIWGDGNTIYHSALRSRLTISKDNSKSQVFLKLNSLQIDDTATYYCAKANWDGYYFDYWGQGTTLTVSS
VL: DIQMNQSPSSLSASLGDTITITCHASQSVDFWLNWYQQKPGNIPKLLISKASNLHTGVPSRFSGSGSGTTFTLTISSLQPEDIATYYCQQGQSYPLTFGSGTKLEIKR
What is called EC50 is the concentration at which the effect is half-maximal. Take B1: the EC50 turned out to be 0.53 nM in test [1] and 0.81 nM in test [3]. In addition, the “Top Inhibition (%)” value in test [1] was found to be 98.2%. The binding result in test [2] is listed as “no binding”.

B2: LK-RB1-11 (antibody, human IgG4 S228P, kappa, V domains shown)
VH: QVTLKESGPGILQPSQTLSLTCSFSGFSLKTSGMSVGWIRQPSGKGLEWLAHIWWNDDKYYNPVLKGRLTISKDTSNNLVFLKIASVVSTDTATYYCVRYGNSHGYWYFDVWGTGTTVTVSS
VL: NIVLTQSPASLAVSLGQRATISCRASESVDSYGNNFIHWYQQKPGQPPKVLIYYASNLEAGVPARFSGSGSRTDFTLTIDPVEAEDAATYYCQQNNEDPYTFGGGTKLEIER
For the molecule B2, in test [1], a half-maximal effect (EC50) was put at 1.34 nM and the “Top Inhibition (%)” value was 78.9%. Moreover, the binding result in test [2] was “no binding”. For the same molecule, the EC50 in test [3] is 0.61 nM.

B3: LK-RB1-24 (antibody, human IgG4 S228P, kappa, V domains shown)
VH: QVQLQQPGAELVNPGTSVNLSCKASGYTFTGYWMHWVKQRPGQGLEWIGMIHPNNGGTIYNERFNGKATLTVDRSSTTAYIQLSSLTSEDSAVYYCAYWDLDYWGQGTTLTVSS
VL: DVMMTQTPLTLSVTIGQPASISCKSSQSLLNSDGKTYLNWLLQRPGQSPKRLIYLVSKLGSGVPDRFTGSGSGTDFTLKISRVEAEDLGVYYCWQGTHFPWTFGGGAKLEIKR
Regarding B3, the values for the EC50 in test [1], in test [2] and in test [3] were 9.07 nM, 1.04 nM and 1.48 nM, respectively. In addition, the “Top Inhibition (%)” value in test [1] turned out to be 64.8%.

B4: LK-RB1-13 (antibody, human IgG4 S228P, kappa, V domains shown)
VH: QVTLKESGPGIVKPSQTLSLTCSFSGFSLSISGTGIGWIRQPSGKGLEWLAHIWWDDDKYYNPSLKSQVTISKDTSTKQVFLNITSVDTADTATYYCTRTELGRGDFWGQGTSVTVSS
VL: DILLTQSPAILSVSPGDRVSFSCRASQSTGTNIHWYQRRTNGSPRLLIKYGSESISGIPSRFSGSGTGTDFTLTINSVESEDIADYYCQQSYSWPYTFGGGTKLEIKR
Take B4: the concentration giving a half-maximal response (EC50) turned out to be 0.42 nM in test [1] and 0.2 nM in test [3]. Besides, in test [1], the “Top Inhibition (%)” value stood at 81.8%. Also, the binding result in test [2] is on record as “no binding”.

B5: LK-RB1-15 (antibody, human IgG4 S228P, kappa, V domains shown)
VH: QVTLKESGPGIVKPSQTLSLTCSFSGFSLSISGTGIGWIRQPSGKGLEWLAHIWWDDDKYYNPSLKSQVTISKDTSTKQVFLNITSVDTADTATYYCTRTELGRGDFWGQGTSVTVSS
VL: DILLTQSPAILSVSPGDRVSFSCRASQSIGTNIHWYQRRTNGSPRLLIKYGSESISGIPSRFSGSGTGTDFTLTINSVESEDIADYYCQQSYSWPYTFGGGTKLEIKR
Consider B5, for which, in test [1], a half-maximal effect (EC50) was put at 0.79 nM and the “Top Inhibition (%)” value was 67.3%. Also, in test [2], the binding result was “no binding”. The same molecule showed an EC50 in test [3] of 0.64 nM.

B6: LK-RB1-23 (antibody, human IgG4 S228P, kappa, V domains shown)
VH: QVQLQQTGAELVRPGSSVKLSCKASGYTFTNYWMDWVKQRPGQGLEWIGNIHPFGNETHYNQKFKDKATLTVDKSSSTAYMQLSSLTSEDSAVYYCARGLLLYFDVWGTGTTVTVSS
VL: DIQMTQSPASQSVSVGETVTITCRASENIYSNLAWYQQKQGKSPQLLVYGATNLADGVSLRFSGSGSGTQYSLKINSLQSEDFGSYYCQHFWGIPWTFGGGTKLEIKR
Regarding B6, in test [1], the EC50 was found to be 0.56 nM and the “Top Inhibition (%)” value came to 95.3%. The binding result in test [2] was “no binding”. The molecule also registered an EC50 in test [3] of 0.73 nM.

B7: LK-RB1-21 (antibody, human IgG4 S228P, kappa, V domains shown)
VH: QVQLQQPGAELVKPGASVKMSCKASGYIFTDYWTTWVKQRPGQGLEWIGDIYPVSGSTNYNEKFKNKATLTVDTSSSTAYMQLSSLTSEDSAVYYCARALGRRYYFDYWGQGTTLTVSS
VL: DIVMTQSHKFMSTSIGDRVSITCKASQDVSTAVAWCQQKPGQSPKSLIYSASYRYTGIPDRFTGSGSGTDFTFTISSVQAEDLAVYYCQQHYTNPVTFGTGTKLELKR
Consider B7, for which, in test [1], the half-maximal effective concentration (EC50) turned out to be 0.53 nM and the “Top Inhibition (%)” value was 98.1%. The binding result in test [2] is “no binding”. Moreover, the EC50 in test [3] was 1.88 nM.

B8: LK-RB1-18 (antibody, human IgG4 S228P, kappa, V domains shown)
VH: QVQLKESGPGLVAPSQSLSITCTVSGFSLTNSGVTWIRQPPGKGLEWLGVIWGDGSTNYHSALISRLSISKDNSKSQVFLKLNSLQTDDTATYYCAKPHWDYYNMDYWGQGTSVTVSS
VL: DIQMTQTPSSLSASLGDRVTISCRASQDISNYLNWYQQKPDGTVKLLIYFTSRLHSGVPSRFSGSGSGTDYSLTISNLEQEDFATYFCQQGITLPLTFGAGTKLELKR
Take B8: the EC50 in test [1] was found to be 0.47 nM; in test [3] it was 0.58 nM. The “Top Inhibition (%)” value in test [1] is 98.7%. The binding result in test [2] is given as “no binding”.

B9: LK-RB1-19 (antibody, human IgG4 S228P, kappa, V domains shown)
VH: QVQLKESGPGLVAPSQNLSITCTVSGFSLTSYGVSWVRQPPGKGLEWLGIIWGDGNTDYHSALISRLSIRKDNSKSQVFLKLNSLKSDDTATYYCAKPHWEYYTMDYWGQGTSVTVSS
VL: DIQMTQTTSSLSASLGDRVTISCRASQDISNFLNWYQQKPDGTVKLLIYSTSRLHSGVPSRFSGSGSGTDYSLTIANLEQEDVATYFCQQGNTLPLTFGAGTKLELKR
In the case of B9, in test [1], the EC50 was determined as 0.49 nM and the “Top Inhibition (%)” value worked out at 98.2%. The binding result in test [2] is “no binding”. Also, the EC50 in test [3] was 0.3 nM.

B10: LK-RB1-22 (antibody, human IgG4 S228P, kappa, V domains shown)
VH: QVQLKESGPGLVAPSQSLSITCTVSGFSLTSYGVSWVRQPPGKGLEWLGIIWGDGNTNYHSALTSRLSISKDNSKSQVFLKLNSLRTDDTATYYCAKPHWDHYSMDYWGQGTSVTVSS
VL: DIQMTQTTSSLSASLGDRVTISCRASQDISNFLNWYQQKPDGTVKLLIYYTSRLHSGAPSRFSGSGSGTDYSLTISNLDQEDIATYFCQQGNTLPLTFGAGTKLELKR
With B10, in test [1], the EC50 came out at 1.4 nM and the “Top Inhibition (%)” value stood at 100%. Moreover, in test [2], the binding result is on record as “no binding”. The EC50 in test [3] was found to be 1.76 nM.

B11: LK-RB1-10 (antibody, human IgG4 S228P, kappa, V domains shown)
VH: QVTLKESGPGILKPSQTLSLTCSFSGFSLSTSGTGVGWIRQPSGKGLEWLAHIWWNDDKYYKPSLKRQLTISKDTSRNQVFLKITSVDTADTATYYCTRTELGRGDYWGQGTSVTVSS
VL: DILLTQSPAILSVSPGERVSFSCRASQSIGTNIHWYQQRMNGSPRLIIKYASELISGIPSRFSGSGSGTDFTLSINSVESEDIADYYCQQSYGWPYTFGGGTKLETKR
For the molecule B11, the values for the EC50 in test [1] and in test [3] were 1.04 nM and 0.7 nM, respectively. Also, in test [1], the “Top Inhibition (%)” value was 83.1%. In addition, in test [2], the binding result was “no binding”.

B12: LK-RB1-14 (antibody, human IgG4 S228P, kappa, V domains shown)
VH: QVTLKESGPGILKPSQTLSLTCSFSGFSLSTSGMGVGWIRQPSGKGLEWLAHIWWDDDKYYNPSLKSQLTISKDTSRNQVFLKITSVDTADTATYYCARTELGRGDSWGQGTSVTVSS
VL: DILLTQSPAILSVSPGERVSFSCRASQSIGTSIHWYQQRTNGSPRLLIKYASESISGIPSRFSGSGSGTDFTLSINSVESEDIADYYCQQSYSWPYTFGGGTKLEIKR
On to B12, for which, in test [1], the EC50 stood at 0.65 nM and the “Top Inhibition (%)” value amounted to 81.2%. The binding result in test [2] is listed as “no binding”. The molecule also displayed an EC50 in test [3] of 0.47 nM.

B13: LK-RB1-20 (antibody, human IgG4 S228P, kappa)
heavy: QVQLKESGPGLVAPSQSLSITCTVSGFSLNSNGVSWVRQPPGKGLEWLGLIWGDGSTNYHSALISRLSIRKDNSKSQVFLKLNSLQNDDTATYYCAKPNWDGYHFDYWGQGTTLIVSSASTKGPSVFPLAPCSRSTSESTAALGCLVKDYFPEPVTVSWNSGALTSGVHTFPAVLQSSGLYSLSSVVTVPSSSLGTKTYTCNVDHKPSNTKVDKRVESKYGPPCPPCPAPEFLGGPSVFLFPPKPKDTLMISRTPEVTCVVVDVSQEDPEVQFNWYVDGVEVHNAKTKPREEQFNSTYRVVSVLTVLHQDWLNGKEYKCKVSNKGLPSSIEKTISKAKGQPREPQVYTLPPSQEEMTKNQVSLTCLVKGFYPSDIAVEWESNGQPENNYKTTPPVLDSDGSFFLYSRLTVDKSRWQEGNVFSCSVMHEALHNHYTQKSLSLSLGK
light: DIQMNQSPSSLSASLGDTITITCHASQNIDFWLSWYQQKPGNIPKLLIYKASNLHTGVPSRFSGSGSGTGFTLTISSLQPEDIATYYCQQGQSYPLTFGAGTKLELKRTVAAPSVFIFPPSDEQLKSGTASVVCLLNNFYPREAKVQWKVDNALQSGNSQESVTEQDSKDSTYSLSSTLTLSKADYEKHKVYACEVTHQGLSSPVTKSFNRGEC
Consider B13, for which, in test [1], the EC50 was 0.52 nM and the “Top Inhibition (%)” value is 97.4%. Also, the binding result in test [2] is listed as “no binding”. Also, in test [3], the response was half-maximal at 0.85 nM (EC50).

B14: LK-RB1-12 (antibody, human IgG4 S228P, kappa, V domains shown)
VH: QVQLQQSGTELVRPGSSVMISCKASGYAFSTYWMDWVKQRPGQGLEWIGQIYPGDGATNYNGKFKGKATLTADKSSITAYMHLSSLTSEDSAVYFCLRSRDYDGWFFDVWGAGTTVTVSS
VL: DIVMTQSHKFMSTSIGDRVSITCKASQDVSSAVAWYQQKPGQSPKLLIYWASTRHTGVPDRFTGSGSGTDYTLTFSSVQAEDLALYYCQQHYSTPWTFGGGTKLEIKR
Take B14: in test [1], the EC50 was 0.37 nM and the “Top Inhibition (%)” value is 79.2%. In addition, in test [2], the binding result is reported as “no binding”. In test [3], the concentration giving a half-maximal response (EC50) is 0.17 nM.

B15: LK-RB1-25 (antibody, human IgG4 S228P, kappa, V domains shown)
VH: QIQLVQSGPELKKPGETVKISCKASGYTFTSYGMNWMKQAPGEGLKWMGWINTYSGVPTYADDFKGRFAFSLETSATTVYLQINNLKNEDKATYFCARRGRDSVVGHFDVWGTGTTVTVSS
VL: DIVMTQSHKFMSTSVGDRVSITCKASQDVNTAVAWYQQKPGQSPKLLIYWASTRHTGVPDRFTGSGSGTDFTLTISSVQAEDLALYYCQQHYTIPFTFGSGTKLEIKR
As for B15, in test [1], the 50% effective concentration (EC50) is 0.62 nM and the “Top Inhibition (%)” value was found to be 98.1%. Also, the binding result in test [2] is on record as “no binding”. Moreover, the EC50 in test [3] is 1.07 nM.

B16: LK-RB1-9 (antibody, human IgG4 S228P, kappa, V domains shown)
VH: QIQLVQSGPELKKPGETVKISCTASGYTFTTYGMSWVKQAPGKGLKWMGWINTYSGVPTYADDFKGRFAFSLETSASTAYLEINNVKNEDTATYFCARRRRTYHGYLCFDYWGQGTTLTVSS
VL: DIQMTQSPVSLSASVGETVTITCETSENIYGALNWYQRKQGKSPQLLIYGATNLADGMSSRFSGSGSGRQYSLEISSLHPDDVASYYCQNVLNTPWTFGGGTKLEIKR
Turning to B16, in test [1], the response was half-maximal at 0.78 nM (EC50) and the “Top Inhibition (%)” value was found to be 88.1%. Further, the binding result in test [2] was “no binding”. In addition, in test [3], the concentration giving a half-maximal response (EC50) is 0.34 nM.
